Test [1] addresses T1, Chlorocebus (African green monkey) Nectin-2 (Chlorocebus (African green monkey)).
T1 chain: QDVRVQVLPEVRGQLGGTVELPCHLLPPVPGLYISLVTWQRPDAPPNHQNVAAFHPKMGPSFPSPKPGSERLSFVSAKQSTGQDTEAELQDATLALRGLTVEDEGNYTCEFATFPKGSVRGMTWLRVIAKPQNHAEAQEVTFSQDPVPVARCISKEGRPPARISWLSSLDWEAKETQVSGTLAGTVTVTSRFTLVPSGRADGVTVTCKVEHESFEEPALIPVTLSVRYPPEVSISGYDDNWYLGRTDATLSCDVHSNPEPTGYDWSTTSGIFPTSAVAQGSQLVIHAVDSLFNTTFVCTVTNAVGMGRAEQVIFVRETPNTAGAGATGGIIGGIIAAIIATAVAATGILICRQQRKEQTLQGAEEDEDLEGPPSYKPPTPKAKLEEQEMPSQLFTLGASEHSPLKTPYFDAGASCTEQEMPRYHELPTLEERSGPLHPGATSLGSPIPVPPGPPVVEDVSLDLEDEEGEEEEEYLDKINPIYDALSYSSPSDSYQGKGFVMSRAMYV
As to the kind of experiment: FACS binding; Vero cells. (A flow cytometer gives signals particle by particle.)

Test [2] deals with T2, cynomolgus (Cyno) monkey (Macaca fascicularis) Nectin-2 (cynomolgus monkey (Macaca fascicularis), UniProt A0A2K5U084 32-538).
T2 chain: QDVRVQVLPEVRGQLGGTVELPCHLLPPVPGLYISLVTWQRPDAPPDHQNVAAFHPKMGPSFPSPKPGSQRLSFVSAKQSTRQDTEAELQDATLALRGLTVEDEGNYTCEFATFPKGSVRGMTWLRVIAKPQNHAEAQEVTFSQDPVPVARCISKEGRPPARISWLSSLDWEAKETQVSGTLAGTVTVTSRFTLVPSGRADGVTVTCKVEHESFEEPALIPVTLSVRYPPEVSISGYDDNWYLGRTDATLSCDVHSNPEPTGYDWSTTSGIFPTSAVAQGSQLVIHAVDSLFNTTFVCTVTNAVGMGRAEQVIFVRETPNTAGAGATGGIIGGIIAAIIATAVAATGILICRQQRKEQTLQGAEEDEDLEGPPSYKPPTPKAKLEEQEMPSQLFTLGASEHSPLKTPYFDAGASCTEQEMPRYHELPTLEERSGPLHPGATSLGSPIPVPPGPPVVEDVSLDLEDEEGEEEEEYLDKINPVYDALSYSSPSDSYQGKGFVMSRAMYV
Kind of test: FACS binding; CHO cells expressing cyno Nectin-2.

B1: anti-Nectin-2 monoclonal antibody clone 7 (antibody, V domains shown)
VH: DVNLVESGGGLVKPGGSLKLSCAASGFTFSRFTMSWVRQTPEKTLDWVATISSGGSYTYYPDSVKGRFTISRDNAKNTLYLQMSSLKSEDTAMYYCTRDRDFYGPYYAMDYWGQGTSVTVSS
VL: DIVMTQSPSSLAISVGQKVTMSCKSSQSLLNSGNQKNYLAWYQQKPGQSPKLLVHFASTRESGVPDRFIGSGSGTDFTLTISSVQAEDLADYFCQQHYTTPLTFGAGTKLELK
Consider B1, for which the EC50 in test [1] came to 0.23 nM; in test [2], 0.66 nM.

B2: anti-Nectin-2 monoclonal antibody clone 11 (antibody, V domains shown)
VH: EVQLQQSGTVLTRPGASVKMSCKASGYIFTSYWIHWVKQRPGQGLEWIGAVYPGNSDSNYNQKFKAKAKLTAVTSTSTAYMELSSLTSEDSAVYYCTKLVGTFDYWGQGTTLTVSS
VL: DIVMTQSQKFMSSSIGDRVSVTCKASQNVGINVVWYQQRAGQSPKTLIYSASYRYSGVPDRFTGSGSGTDFTLTISNVQSEDLAEYFCQQYNTNPFTFGSGTKLEIK
On to B2, for which the results for the EC50 in test [1] and in test [2] were 0.16 nM and 0.2 nM, respectively.

As a reminder, the EC50 is the concentration giving half of the maximal effect.

Values taken from patent publication US20260116971A1 (published 2026).
